B1: Paired immunoglobulin-like type 2 receptor alpha (Homo sapiens), Q9UKJ1 (parent)
chain: MGRPLLLPLLPLLLPPAFLQPSGSTGSGPSYLYGVTQPKHLSASMGGSVEIPFSFYYPWELATAPDVRISWRRGHFHRQSFYSTRPPSIHKDYVNRLFLNWTEGQKSGFLRISNLQKQDQSVYFCRVELDTRSSGRQQWQSIEGTKLSITQAVTTTTQRPSSMTTTWRLSSTTTTTGLRVTQGKRRSDSWHISLETAVGVAVAVTVLGIMILGLICLLRWRRRKGQQRTKATTPAREPFQNTEEPYENIRNEGQNTDPKLNPKDDGIVYASLALSSSTSPRAPPSHRPLKSPQNETLYSVLKA

Variants of: B1
Conditions: with ptn6_human PTPN6, P29350
ptn6_human PTPN6, P29350, sequence (P29350 whole entry): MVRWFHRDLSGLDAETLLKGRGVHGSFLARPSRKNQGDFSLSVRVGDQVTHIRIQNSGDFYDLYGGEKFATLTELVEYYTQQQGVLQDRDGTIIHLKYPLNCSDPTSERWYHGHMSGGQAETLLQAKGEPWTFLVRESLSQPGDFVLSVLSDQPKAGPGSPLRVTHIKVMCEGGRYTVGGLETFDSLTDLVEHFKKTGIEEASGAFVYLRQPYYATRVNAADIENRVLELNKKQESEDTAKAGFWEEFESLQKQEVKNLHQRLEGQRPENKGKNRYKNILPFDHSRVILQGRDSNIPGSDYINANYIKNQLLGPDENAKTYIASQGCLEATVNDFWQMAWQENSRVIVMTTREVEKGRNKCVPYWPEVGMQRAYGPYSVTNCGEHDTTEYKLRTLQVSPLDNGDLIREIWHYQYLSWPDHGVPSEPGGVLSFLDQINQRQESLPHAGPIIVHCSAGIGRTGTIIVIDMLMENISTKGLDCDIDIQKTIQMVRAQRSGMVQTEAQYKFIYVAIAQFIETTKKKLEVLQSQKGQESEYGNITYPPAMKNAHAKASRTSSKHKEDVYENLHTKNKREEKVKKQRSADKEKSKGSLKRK

Row | effect of a mutation on the interaction | Variant
1 | decreasing interaction | Y269F
2 | decreasing interaction | Y269F;Y298F

— IntAct's records for PubMed 10660620
